Article PMC5095800, “A standardized production pipeline for high profile targets from Mycobacterium tuberculosis” (Proteomics. Clinical Applications, 2016)

Target: the molecule itself
Experiment: SEC

B1: Ferritin BfrB (natural protein)
chain: MTEYEGPKTKFHALMQEQIHNEFTAAQQYVAIAVYFDSEDLPQLAKHFYSQAVEERNHAMMLVQHLLDRDLRVEIPGVDTVRNQFDRPREALALALDQERTVTDQVGRLTAVARDEGDFLGEQFMQWFLQEQIEEVALMATLVRVADRAGANLFELENFVAREVDVAPAASGAPHAAGGRL
notes: also called Rv3841; copies: 24
stoichiometry N: 24
